± gives the standard deviation of the averaged measurements.
Assay: total protein half-life in vivo (active degradation + dilution); higher = more stable protein
[1] = E. coli NCM3722 delta-clpP delta-lon delta-hslV, growth: N-lim chemostat, doubling time 6 h
[2] = E. coli NCM3722 delta-clpP, growth: N-lim chemostat, doubling time 6 h
[3] = E. coli NCM3722 delta-hslV, growth: N-lim chemostat, doubling time 6 h
[4] = E. coli NCM3722 delta-lon, growth: N-lim chemostat, doubling time 6 h
[5] = E. coli NCM3722 delta-smpB, growth: N-lim chemostat, doubling time 6 h
[6] = wild type E. coli NCM3722, growth: C-lim chemostat, doubling time 3 h
[7] = wild type E. coli NCM3722, growth: C-lim chemostat, doubling time 6 h
[8] = wild type E. coli NCM3722, growth: C-lim chemostat, doubling time 12 h
[9] = wild type E. coli NCM3722, growth: N-lim chemostat, doubling time 6 h
[10] = wild type E. coli NCM3722, growth: N-lim chemostat, doubling time 12 h
[11] = wild type E. coli NCM3722, growth: P-lim chemostat, doubling time 6 h
[12] = wild type E. coli NCM3722, growth: P-lim chemostat, doubling time 12 h

## MEAIKGSDVNVPDAVFAWMLDGRGGVKPLENTDVIDEAHPCWLHLNYVHHDSAQWLATTPLLPNNVRDALAGESTRPRVSRLGEGTLITLRCINGSTDERPDQLVAMRVYMDGRLIVSTRQRKVLALDDVVSDLEEGTGPTDCGGWLVDVCDALTDHSSEFIEQLHDKIIDLEDNLLDQQIPPRGFLALLRKQLIVMRRYMAPQRDVYARLASERLPWMSDDQRRRMQDIADRLGRGLDEIDACIARTGVMADEIAQVMQENLARRTYTMSLMAMVFLPSTFLTGLFGVNLGGIPGGGWQFGFSIFCILLVVLIGGVALWLHRSKWL
[1]
  total protein half-life in vivo: 6.29 ± 0.86 h
[2]
  total protein half-life in vivo: 5.99 ± 0.61 h
[3]
  total protein half-life in vivo: 5.56 ± 0.95 h
[4]
  total protein half-life in vivo: 6.34 ± 0.75 h
[5]
  total protein half-life in vivo: 5.71 ± 0.2 h
[6]
  total protein half-life in vivo: 3.06 ± 0.47 h
[7]
  total protein half-life in vivo: 6.04 ± 0.35 h
[8]
  total protein half-life in vivo: 11.5 ± 0.33 h
[9]
  total protein half-life in vivo: 6.07 ± 0.2 h
[10]
  total protein half-life in vivo: 11.9 ± 0.9 h
[11]
  total protein half-life in vivo: 5.31 ± 0.072 h
[12]
  total protein half-life in vivo: 8.98 ± 0.42 h

## MEALLQLKGIDKAFPGVKALSGAALNVYPGRVMALVGENGAGKSTMMKVLTGIYTRDAGTLLWLGKETTFTGPKSSQEAGIGIIHQELNLIPQLTIAENIFLGREFVNRFGKIDWKTMYAEADKLLAKLNLRFKSDKLVGDLSIGDQQMVEIAKVLSFESKVIIMDEPTDALTDTETESLFRVIRELKSQGRGIVYISHRMKEIFEICDDVTVFRDGQFIAEREVASLTEDSLIEMMVGRKLEDQYPHLDKAPGDIRLKVDNLCGPGVNDVSFTLRKGEILGVSGLMGAGRTELMKVLYGALPRTSGYVTLDGHEVVTRSPQDGLANGIVYISEDRKRDGLVLGMSVKENMSLTALRYFSRAGGSLKHADEQQAVSDFIRLFNVKTPSMEQAIGLLSGGNQQKVAIARGLMTRPKVLILDEPTRGVDVGAKKEIYQLINQFKADGLSIILVSSEMPEVLGMSDRIIVMHEGHLSGEFTREQATQEVLMAAAVGKLNRVNQE
[1]
  total protein half-life in vivo: 6.58 ± 1.1 h
[2]
  total protein half-life in vivo: 5.992 ± 0.012 h
[3]
  total protein half-life in vivo: 6.14 ± 0.13 h
[4]
  total protein half-life in vivo: 5.71 ± 0.28 h
[5]
  total protein half-life in vivo: 5.878 ± 0.015 h
[6]
  total protein half-life in vivo: 3.11 ± 0.17 h
[7]
  total protein half-life in vivo: 6.04 ± 0.086 h
[8]
  total protein half-life in vivo: 11.3 ± 2.2 h
[9]
  total protein half-life in vivo: 5.96 ± 0.35 h
[10]
  total protein half-life in vivo: 12.7 ± 0.54 h
[11]
  total protein half-life in vivo: 6.499 ± 0.06 h
[12]
  total protein half-life in vivo: 12.2 ± 0.6 h

## MEFTTGLMSLDTALNEMLSRVTPLTAQETLPLVQCFGRILASDVVSPLDVPGFDNSAMDGYAVRLADIASGQPLPVAGKSFAGQPYHGEWPAGTCIRIMTGAPVPEGCEAVVMQEQTEQMDNGVRFTAEVRSGQNIRRRGEDISAGAVVFPAGTRLTTAELPVIASLGIAEVPVIRKVRVALFSTGDELQLPGQPLGDGQIYDTNRLAVHLMLEQLGCEVINLGIIRDDPHALRAAFIEADSQADVVISSGGVSVGEADYTKTILEELGEIAFWKLAIKPGKPFAFGKLSNSWFCGLPGNPVSATLTFYQLVQPLLAKLSGNTASGLPARQRVRTASRLKKTPGRLDFQRGVLQRNADGELEVTTTGHQGSHIFSSFSLGNCFIVLERDRGNVEVGEWVEVEPFNALFGGL
[3]
  total protein half-life in vivo: 4.41 ± 0.22 h
[4]
  total protein half-life in vivo: 4.63 ± 0.21 h
[5]
  total protein half-life in vivo: 4.88 ± 0.29 h
[6]
  total protein half-life in vivo: 2.741 ± 0.013 h
[7]
  total protein half-life in vivo: 4.96 ± 0.85 h
[8]
  total protein half-life in vivo: 11.1 ± 0.4 h
[9]
  total protein half-life in vivo: 4.07 ± 0.22 h
[10]
  total protein half-life in vivo: 7.4293 ± 0.003 h
[11]
  total protein half-life in vivo: 5.64 ± 0.34 h
[12]
  total protein half-life in vivo: 11.1 ± 1.6 h

## MEGSDFLLAGVLFLFAAVAAVPLASRLGIGAVLGYLLAGIAIGPWGLGFISDVDEILHFSELGVVFLMFIIGLELNPSKLWQLRRSIFGVGAAQVLLSAALLAGLLMLTDFAWQAAVVGGIGLAMSSTAMALQLMREKGMNRSESGQLGFSVLLFQDLAVIPALALVPLLAGSADEHFDWMKVGMKVLAFVGMLIGGRYLLRPVFRFIAASGVREVFTAATLLLVLGSALFMDALGLSMALGTFIAGVLLAESEYRHELETAIDPFKGLLLGLFFISVGMSLNLGVLYTHLLWVVISVVVLVAVKILVLYLLARLYGVRSSERMQFAGVLSQGGEFAFVLFSTASSQRLFQGDQMALLLVTVTLSMMTTPLLMKLVDKWLSRQFNGPEEEDEKPWVNDDKPQVIVVGFGRFGQVIGRLLMANKMRITVLERDISAVNLMRKYGYKVYYGDATQVDLLRSAGAEAAESIVITCNEPEDTMKLVEICQQHFPHLHILARARGRVEAHELLQAGVTQFSRETFSSALELGRKTLVTLGMHPHQAQRAQLHFRRLDMRMLRELIPMHADTVQISRAREARRELEEIFQREMQQERRQLDGWDEFE
[1]
  total protein half-life in vivo: 7.22 ± 0.56 h
[4]
  total protein half-life in vivo: 6.81 ± 1.1 h
[5]
  total protein half-life in vivo: 6.39 ± 1.5 h
[7]
  total protein half-life in vivo: 5.87 ± 0.17 h
[9]
  total protein half-life in vivo: 5.996 ± 0.021 h
[10]
  total protein half-life in vivo: 13.6 ± 2 h
[11]
  total protein half-life in vivo: 7.09 ± 1.1 h

## MEIIMRNLCFLLTLVATLLLPGRLIAAALPQDEKLITGQLDNGLRYMIYPHAHPKDQVNLWLQIHTGSLQEEDNELGVAHFVEHMMFNGTKTWPGNKVIETFESMGLRFGRDVNAYTSYDETVYQVSLPTTQKQNLQQVMAIFSEWSNAATFEKLEVDAERGVITEEWRAHQDAKWRTSQARRPFLLANTRNLDREPIGLMDTVATVTPAQLRQFYQRWYQPNNMTFIVVGDIDSKEALALIKDNLSKLPANKAAENRVWPTKAENHLRFNIINDKENRVNGIALYYRLPMVQVNDEQSFIEQAEWSMLVQLFNQRLQERIQSGELKTISGGTARSVKIAPDYQSLFFRVNARDDNMQDAANALMAELATIDQHGFSAEELDDVKSTRLTWLKNAVDQQAERDLRMLTSRLASSSLNNTPFLSPEETYQLSKRLWQQITVQSLAEKWQQLRKNQDAFWEQMVNNEVAAKKALSPAAILALEKEYANKKLAAYVFPGRNLSLTVDADPQAEISSKETLAENLTSLTLSNGARVILAKSAGEEQKLQIIAVSNKGDLSFPAQQKSLIALANKAVSGSGVGELSSSSLKRWSAENSVTMSSKVSGMNTLLSVSARTNNPEPGFQLINQRITHSTINDNIWASLQNAQIQALKTLDQRPAEKFAQQMYETRYADDRTKLLQENQIAQFTAADALAADRQLFSSPADITFVIVGNVAEDKLVALITRYLGSIKHSDSPLAAGKPLTRATDNASVTVKEQNEPVAQVSQWKRYDSRTPVNLPTRMALDAFNVALAKDLRVNIREQASGAYSVSSRLSVDPQAKDISHLLAFTCQPERHDELLTLANEVMVKRLAKGISEQELNEYQQNVQRSLDIQQRSVQQLANTIVNSLIQYDDPAAWTEQEQLLKQMTVENVNTAVKQYLSHPVNTYTGVLLPK
[1]
  total protein half-life in vivo: 4.62 ± 0.69 h
[2]
  total protein half-life in vivo: 5.77 ± 0.74 h
[3]
  total protein half-life in vivo: 4.77 ± 1.3 h
[4]
  total protein half-life in vivo: 5.5 h
[5]
  total protein half-life in vivo: 4.55 ± 0.17 h
[6]
  total protein half-life in vivo: 2.905 ± 0.0097 h
[7]
  total protein half-life in vivo: 5.9 ± 0.39 h
[8]
  total protein half-life in vivo: 10.2 ± 0.87 h
[9]
  total protein half-life in vivo: 5.41 ± 0.45 h
[10]
  total protein half-life in vivo: 9.96 ± 0.61 h
[11]
  total protein half-life in vivo: 4.84 ± 0.2 h
[12]
  total protein half-life in vivo: 9.3 ± 0.6 h

## MEISWGRALWRNFLGQSPDWYKLALIIFLIVNPLIFLISPFVAGWLLVAEFIFTLAMALKCYPLLPGGLLAIEAVFIGMTSAEHVREEVAANLEVLLLLMFMVAGIYFMKQLLLFIFTRLLLSIRSKMLLSLSFCVAAAFLSAFLDALTVVAVVISVAVGFYGIYHRVASSRTEDTDLQDDSHIDKHYKVVLEQFRGFLRSLMMHAGVGTALGGVMTMVGEPQNLIIAKAAGWHFGDFFLRMSPVTVPVLICGLLTCLLVEKLRWFGYGETLPEKVREVLQQFDDQSRHQRTRQDKIRLIVQAIIGVWLVTALALHLAEVGLIGLSVIILATSLTGVTDEHAIGKAFTESLPFTALLTVFFSVVAVIIDQQLFSPIIQFVLQASEHAQLSLFYIFNGLLSSISDNVFVGTIYINEAKAAMESGAITLKQYELLAVAINTGTNLPSVATPNGQAAFLFLLTSALAPLIRLSYGRMVWMALPYTLVLTLVGLLCVEFTLAPVTEWFMQMGWIATL [P0AFA7]
[3]
  total protein half-life in vivo: 6.59 ± 0.35 h
[4]
  total protein half-life in vivo: 6.07 ± 0.93 h
[5]
  total protein half-life in vivo: 6.4 ± 0.18 h
[8]
  total protein half-life in vivo: 13.8 ± 0.64 h
[9]
  total protein half-life in vivo: 5.91 ± 0.38 h
[10]
  total protein half-life in vivo: 11.2 ± 4.7 h
[11]
  total protein half-life in vivo: 6.58 ± 0.48 h
[12]
  total protein half-life in vivo: 12.8 ± 0.14 h

From the supplement of paper PMC11246515
